The values that follow come from US20040022772A1 (University of Texas, published 2004).

The test deals with T1, p185 BCR-ABL (human, UniProt P00519 27-1130).
T1 construct: Endogenous protein of the SUP-B15 ALL cell line; also called Bcr-Abl oncoprotein (SUP-B15 cells)
Kind of test: co-precipitation of Bcr-Abl with Bcr by anti-BCR (1256-1271), immunokinase assay, SUP-B15 cells. The procedure:
The effects of the sense and antisense 3′ BCR oligonucleotides were tested on BCR expression in SUP-Bi5 cells, a cell line derived from a Ph¹-positive acute lymphocytic leukemia patient that expresses p185 BCR—ABL.
In this study, equal amounts of the sense and the antisense oligonucleotide treated B15 cells were analyzed.

B1: p160 BCR (enzyme, human, UniProt P11274 1-1271, looked up)
chain: MVDPVGFAEAWKAQFPDSEPPRMELRSVGDIEQELERCKASIRRLEQEVNQERFRMIYLQTLLAKEKKSYDRQRWGFRRAAQAPDGASEPRASASRPQPAPADGADPPPAEEPEARPDGEGSPGKARPGTARRPGAAASGERDDRGPPASVAALRSNFERIRKGHGQPGADAEKPFYVNVEFHHERGLVKVNDKEVSDRISSLGSQAMQMERKKSQHGAGSSVGDASRPPYRGRSSESSCGVDGDYEDAELNPRFLKDNLIDANGGSRPPWPPLEYQPYQSIYVGGMMEGEGKGPLLRSQSTSEQEKRLTWPRRSYSPRSFEDCGGGYTPDCSSNENLTSSEEDFSSGQSSRVSPSPTTYRMFRDKSRSPSQNSQQSFDSSSPPTPQCHKRHRHCPVVVSEATIVGVRKTGQIWPNDGEGAFHGDADGSFGTPPGYGCAADRAEEQRRHQDGLPYIDDSPSSSPHLSSKGRGSRDALVSGALESTKASELDLEKGLEMRKWVLSGILASEETYLSHLEALLLPMKPLKAAATTSQPVLTSQQIETIFFKVPELYEIHKEFYDGLFPRVQQWSHQQRVGDLFQKLASQLGVYRAFVDNYGVAMEMAEKCCQANAQFAEISENLRARSNKDAKDPTTKNSLETLLYKPVDRVTRSTLVLHDLLKHTPASHPDHPLLQDALRISQNFLSSINEEITPRRQSMTVKKGEHRQLLKDSFMVELVEGARKLRHVFLFTDLLLCTKLKKQSGGKTQQYDCKWYIPLTDLSFQMVDELEAVPNIPLVPDEELDALKIKISQIKNDIQREKRANKGSKATERLKKKLSEQESLLLLMSPSMAFRVHSRNGKSYTFLISSDYERAEWRENIREQQKKCFRSFSLTSVELQMLTNSCVKLQTVHSIPLTINKEDDESPGLYGFLNVIVHSATGFKQSSNLYCTLEVDSFGYFVNKAKTRVYRDTAEPNWNEEFEIELEGSQTLRILCYEKCYNKTKIPKEDGESTDRLMGKGQVQLDPQALQDRDWQRTVIAMNGIEVKLSVKFNSREFSLKRMPSRKQTGVFGVKIAVVTKRERSKVPYIVRQCVEEIERRGMEEVGIYRVSGVATDIQALKAAFDVNNKDVSVMMSEMDVNAIAGTLKLYFRELPEPLFTDEFYPNFAEGIALSDPVAKESCMLNLLLSLPEANLLTFLFLLDHLKRVAEKEAVNKMSLHNLATVFGPTLLRPSEKESKLPANPSQPITMTDSWSLEVMSQVQVLLYFLQLEAIPAPDSKRQSILFSTEV
notes: also called normal Bcr protein; wild-type Bcr
Consider B1, for which the binding result is on record as “binds”.
